Molecular target: T1, factor H binding protein (wild type, variant 1) (Neisseria meningitidis, UniProt E6MV22 20-274)
T1 sequence: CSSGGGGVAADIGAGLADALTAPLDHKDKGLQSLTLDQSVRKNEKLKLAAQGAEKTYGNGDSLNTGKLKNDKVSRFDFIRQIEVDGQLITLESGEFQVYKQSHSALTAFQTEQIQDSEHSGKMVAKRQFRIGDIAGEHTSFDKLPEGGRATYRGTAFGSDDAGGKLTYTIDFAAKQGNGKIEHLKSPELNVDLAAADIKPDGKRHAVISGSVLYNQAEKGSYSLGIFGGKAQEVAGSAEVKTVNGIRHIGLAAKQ
Assay: derived from binding studies (SPR)

B1: fH67 (CCPs 6 and 7 of factor H) (other)
chain: TLKPCDYPDIKHGGLYHENMRRPYFPVAVGKYYSYYCDEHFETPSGSYWDHIHCTQDGWSPAVPCLRKCYFPYLENGYNQNYGRKFVQGKSIDVACHPGYALPKAQTTVTCMENGWSPTPRCI
notes: domain: CCPs 6 and 7; also called CCPs 67; Factor H domains 6 & 7
  ΔG (calculated from KD): -11 kcal/mol

Reference: patent US20120052092A1 (IMPERIAL INNOVATIONS, published 2012)
